Reference: paper PMC8130709, “Structure and activation mechanism of the human liver-type glutaminase GLS2” (Biochimie, 2021)
Substitutions are numbered along the chain they refer to. Names may count otherwise. “And” between values parts separate entries of the source, which are not always exact repeats. Identical values can stand only once.

B1: Mouse GLS2 (Leu72-Val602) (enzyme, UniProt Q571F8 72-602, looked up)
chain: LGDLLFYTIAEGQERIPIHKFTTALKATGLQTSDPRLQDCMSKMQRMVQESSSGGLLDRELFQKCVSSNIVLLTQAFRKKFVIPDFEEFTGHVDRIFEDAKEPTGGKVAAYIPHLAKSNPDLWGVSLCTVDGQRHSVGHTKIPFCLQSCVKPLTYAISVSTLGTDYVHKFVGKEPSGLRYNKLSLNEEGIPHNPMVNAGAIVVSSLIKMDCNKAEKFDFVLQYLNKMAGNEFMGFSNATFQSEKETGDRNYAIGYYLKEKKCFPKGVDMMAALDLYFQLCSVEVTCESGSVMAATLANGGICPITGESVLSAEAVRNTLSLMHSCGMYDFSGQFAFHVGLPAKSAVSGAILLVVPNVMGMMCLSPPLDKLGNSQRGINFCQKLVSLFNFHNYDNLRHCARKLDPRREGGEVRNKTVVNLLFAAYSGDVSALRRFALSAMDMEQKDYDSRTALHVAAAEGHIEVVKFLIEACKVNPFVKDRWGNIPLDDAVQFNHLEVVKLLQDYHDSYLLSETQAEAAAETLSKENLESMV
notes: liver-type glutaminase GLS2, mouse, residues Leu72-Val602; also called liver-type glutaminase; wild type; source: recombinant, purified
B2: Mouse GLS2 (Leu72-Val602) Lys253Ala mutant (enzyme, UniProt Q571F8 72-602, looked up)
chain: B1 chain with K182A
notes: also called K253A; source: recombinant, purified; point mutant generated by PCR (QuickChange II XL)
B3: Human GLS2 glutaminase domain (Ile154-Gly479) (domain or fragment, UniProt Q9UI32-1 154-479, looked up)
chain: IPDFEEFTGHVDRIFEDVKELTGGKVAAYIPQLAKSNPDLWGVSLCTVDGQRHSVGHTKIPFCLQSCVKPLTYAISISTLGTDYVHKFVGKEPSGLRYNKLSLNEEGIPHNPMVNAGAIVVSSLIKMDCNKAEKFDFVLQYLNKMAGNEYMGFSNATFQSEKETGDRNYAIGYYLKEKKCFPKGVDMMAALDLYFQLCSVEVTCESGSVMAATLANGGICPITGESVLSAEAVRNTLSLMHSCGMYDFSGQFAFHVGLPAKSAVSGAILLVVPNVMGMMCLSPPLDKLGNSHRGTSFCQKLVSLFNFHNYDNLRHCARKLDPRREG
notes: liver-type glutaminase GLS2, human, glutaminase (catalytic) domain, residues Ile154-Gly479, common to the LGA and GAB isoforms; Cloned into pNIC28-Bsa4; also called human GLS2 catalytic domain construct; source: E. coli BL21(DE3)-R3-pRARE2, purified (Ni-NTA, Superdex 200 gel filtration, HiTrap Q HP)

What was measured:
[1] = target: the molecule itself; experiment: SEC; analytical gel filtration of serial dilutions of the protein, in the absence of phosphate; Stokes radius against protein concentration
[2] = target: the molecule itself; experiment: crystal structure; ligand-free, sitting drop at 293 K, 0.1 M Tris pH 8.5, 0.2 M NaCl, 25% PEG 3350; space group H 3 2, two monomers in the asymmetric unit, tetramer generated by crystal symmetry

Protein	stoichiometry N [1]	stoichiometry N [2]
B1	2 and 4	
B2	4	
B3		4
